Assay results from publication PMC4710668, “Bioactivation of food genotoxicants 5-hydroxymethylfurfural and furfuryl alcohol by sulfotransferases from human, mouse and rat: a comparative study” (Archives of Toxicology, 2014).

Tests used:
Test in all cases: HMF sulfoconjugation assay
Details in all cases: other: catalytic efficiency of HMF sulfoconjugation; pH 7.4
[1] = substrate: O=Cc1ccc(CO)o1; type: biochemical, rat
Procedure: (§1) Cytosolic fractions containing individual SULT forms were prepared from transgenic S. typhimurium TA1538. Table S1 in the Supplementary Material provides a summary of the thirty SULTs used in the current study together with references describing the cloning of the respective S. typhimurium TA1538 strains. The expressed SULT forms are denoted with the prefixes h, m and r for human, mouse and rat enzymes, respectively. Bacteria were grown in Luria Broth medium containing ampicillin (100 µg/ml) by stirring for 8 h at 200 revolutions/min at 37 °C. The bacterial suspensions were centrifuged at 5,000 g for 10 min. […] The protein concentrations were determined according to a bicinchoninic acid (BCA) assay protocol. […]
(§2) The reactions were conducted in mixtures of 100 µl containing 25–200 µg protein, 50 mM potassium phosphate buffer (pH 7.4), 5 mM MgCl2, 50 µM PAPS and different concentrations of HMF at 37 °C. Preliminary experiments ensured that measurements were recorded under ‘linear’ conditions, i.e., doubling of protein concentration or incubation time was doubling the amount of sulfate ester formed. […]
(§3) SMF concentrations of the clear supernatants were analyzed by UPLC-MS/MS. The protocol was adapted from the quantification of SMF in plasma samples of HMF-treated mice (Monien et al. [2009]). […]

[2] = substrate: O=Cc1ccc(CO)o1; type: biochemical, human
Procedure: Cytosolic fractions containing individual SULT forms were prepared from transgenic S. typhimurium TA1538. Table S1 in the Supplementary Material provides a summary of the thirty SULTs used in the current study together with references describing the cloning of the respective S. typhimurium TA1538 strains. The expressed SULT forms are denoted with the prefixes h, m and r for human, mouse and rat enzymes, respectively. Bacteria were grown in Luria Broth medium containing ampicillin (100 µg/ml) by stirring for 8 h at 200 revolutions/min at 37 °C. The bacterial suspensions were centrifuged at 5,000 g for 10 min. The sediments were washed twice with 25 ml of 10 mM potassium phosphate buffer (pH 7.4)/50 mM potassium chloride (KCP buffer) and centrifuged again. The pellets were taken up in 800 µl KCP buffer and sonicated thrice for 15 s with 30 s pauses in between. The soluble fraction was attained by centrifuging for 1 h at 100,000 g. The supernatants (in the following termed cytosolic preparations) were frozen at −80 °C. The protein concentrations were determined according to a bicinchoninic acid (BCA) assay protocol. The SULT concentrations in the cytosolic preparations were estimated after electrophoretic separation and immunodetection using inclusion bodies of different SULT forms as standards (Teubner et al. [2007]). The preparation of SULT inclusion bodies and the immunodetection of SULTs is described in the Supplementary Material, which also contains a representative immunoblot of different amounts of rSult1a1standard and a cytosolic preparation of S. typhimurium expressing rSult1a1 (Fig. S1).
as §2
SMF concentrations of the clear supernatants were analyzed by UPLC-MS/MS. The protocol was adapted from the quantification of SMF in plasma samples of HMF-treated mice (Monien et al. [2009]). In short, the supernatants were analyzed using a UPLC system (Waters) connected to a Quattro Premier XE tandem quadrupole mass spectrometer (Waters) using the negative electrospray ionization mode. […] The fragmentation reactions of SMF yielding two principal ions, the sulfate ion radical (m/z = 204.9 → 96.0) and the protonated sulfonate ion (m/z = 204.9 → 81.0) were monitored. […] SMF was quantified using an external calibration line that was linear in the concentration range of 1.0 nM (4 fmol/injection) to 2,500 (10 pmol/injection) SMF (r ^2 ≥ 0.99). […]

[3] = substrate: O=Cc1ccc(CO)o1; type: biochemical, mouse
Procedure: as §1, §2, §3

B1: rSult1a1 (Rattus norvegicus) (protein)
chain: MEFSRPPLVHVKGIPLIKYFAETIGPLQNFTAWPDDLLISTYPKSGTTWMSEILDMIYQGGKLEKCGRAPIYARVPFLEFKCPGVPSGLETLEETPAPRLLKTHLPLSLLPQSLLDQKVKVIYIARNAKDVVVSYYNFYNMAKLHPDPGTWDSFLENFMDGEVSYGSWYQHVKEWWELRHTHPVLYLFYEDIKENPKREIKKILEFLGRSLPEETVDSIVHHTSFKKMKENCMTNYTTIPTEIMDHNVSPFMRKGTTGDWKNTFTVAQNERFDAHYAKTMTDCDFKFRCEL
notes: made in house; host or cells: Salmonella typhimurium TA1538 (cytosolic fraction, enzyme not purified)
For B1, the kcat/Km [1] was 5.3 M⁻¹ s⁻¹.

B2: hSULT1C2 (Homo sapiens) (protein)
chain: MALHDMEDFTFDGTKRLSVNYVKGILQPTDTCDIWDKIWNFQAKPDDLLISTYPKAGTTWTQEIVELIQNEGDVEKSKRAPTHQRFPFLEMKIPSLGSGLEQAHAMPSPRILKTHLPFHLLPPSLLEKNCKIIYVARNPKDNMVSYYHFQRMNKALPAPGTWEEYFETFLAGKVCWGSWHEHVKGWWEAKDKHRILYLFYEDMKKNPKHEIQKLAEFIGKKLDDKVLDKIVHYTSFDVMKQNPMANYSSIPAEIMDHSISPFMRKGAVGDWKKHFTVAQNERFDEDYKKKMTDTRLTFHFQF
notes: made in house; host or cells: Salmonella typhimurium TA1538 (cytosolic fraction, not purified)
In the case of B2, the kcat/Km [2] is reported as 0.73 M⁻¹ s⁻¹.

B3: rSult1c1 (Rattus norvegicus) (protein)
chain: MSLEKMKDLHLGEQDLQPETREVNGILMSKLMSDNWDKIWNFQAKPDDLLIATYAKAGTTWTQEIVDMIQNDGDVQKCQRANTYDRHPFIEWTLPSPLNSGLDLANKMPSPRTLKTHLPVHMLPPSFWKENSKIIYVARNAKDCLVSYYYFSRMNKMLPDPGTLGEYIEQFKAGKVLWGSWYDHVKGWWDVKDQHRILYLFYEDMKEDPKREIKKIAKFLEKDISEEVLNKIIYHTSFDVMKENPMANYTTLPSSIMDHSISPFMRKGMPGDWKNYFTVAQSEDFDEDYRRKMAGSNITFRTEI
notes: as for B1
B3 was tested, and the kcat/Km [1] was 0.12 M⁻¹ s⁻¹.

B4: hSULT1A3 (Homo sapiens) (protein)
chain: MELIQDTSRPPLEYVKGVPLIKYFAEALGPLQSFQARPDDLLINTYPKSGTTWVSQILDMIYQGGDLEKCNRAPIYVRVPFLEVNDPGEPSGLETLKDTPPPRLIKSHLPLALLPQTLLDQKVKVVYVARNPKDVAVSYYHFHRMEKAHPEPGTWDSFLEKFMAGEVSYGSWYQHVQEWWELSRTHPVLYLFYEDMKENPKREIQKILEFVGRSLPEETMDFMVQHTSFKEMKKNPMTNYTTVPQELMDHSISPFMRKGMAGDWKTTFTVAQNERFDADYAEKMAGCSLSFRSEL
notes: as for B2
B4 was tested, and the kcat/Km [2] was 0.26 M⁻¹ s⁻¹.

B5: mSult1d1 (Mus musculus) (protein)
chain: MDNKLDVFRRELVDVEGIPLFWSIAEHWSQVESFEARPDDILISTYPKSGTTWVSEILDLIYNNGDAEKCKRDAIYKRVPFMELIIPGITNGVEMLNNMPSPRIVKTHLPVQLLPSSFWKNDCKIIYVARNAKDVVVSYYYFYQMAKIHPEPGTWEEFLEKFMAGQVSFGPWYDHVKSWWEKRKEYRILYLFYEDMKENPKCEIQKILKFLEKDIPEEILNKILYHSSFSVMKENPSANYTTMMKEEMDHSVSPFMRKGISGDWKNQFTVAQYEKFEEDYVKKMEDSTLKFRSEI
notes: as for B1
In the case of B5, the kcat/Km [3] is reported as 4.8 M⁻¹ s⁻¹.

B6: hSULT1A2 (Homo sapiens) (protein)
chain: MELIQDISRPPLEYVKGVPLIKYFAEALGPLQSFQARPDDLLISTYPKSGTTWVSQILDMIYQGGDLEKCHRAPIFMRVPFLEFKVPGIPSGMETLKNTPAPRLLKTHLPLALLPQTLLDQKVKVVYVARNAKDVAVSYYHFYHMAKVYPHPGTWESFLEKFMAGEVSYGSWYQHVQEWWELSRTHPVLYLFYEDMKENPKREIQKILEFVGRSLPEETVDLMVEHTSFKEMKKNPMTNYTTVRREFMDHSISPFMRKGMAGDWKTTFTVAQNERFDADYAKKMAGCSLSFRSEL
notes: as for B2
With B6 the kcat/Km [2] was 0.71 M⁻¹ s⁻¹.

B7: mSult1a1 (Mus musculus) (protein)
chain: MEPLRKPLVPVKGIPLIKYFAETMEQLQNFTAWPDDVLISTYPKSGTNWMSEIMDMIYQGGKLDKCGRAPVYARIPFLEFSCPGVPPGLETLKETPAPRIIKTHLPLSLLPQSLLDQKIKVIYVARNAKDVVVSYYNFYKMAKLHPDPGTWESFLENFMDGKVSYGSWYQHVKEWWELRRTHPVLYLFYEDMKENPKREIKKILEFLGRSLPEETVDLIVHHTSFKKMKENPMANYTTIPTEVMDHTIYPFMRKGTIGDWKNTFTVAQSEHFDAHYAKLMTGCDFTFRCQI
notes: as for B1
With B7 the kcat/Km [3] was 15.8 M⁻¹ s⁻¹.

B8: hSULT1A1 (Homo sapiens) (protein)
chain: MELIQDTSRPPLEYVKGVPLIKYFAEALGPLQSFQARPDDLLISTYPKSGTTWVSQILDMIYQGGDLEKCHRAPIFMRVPFLEFKAPGIPSGMETLKDTPAPRLLKTHLPLALLPQTLLDQKVKVVYVARNAKDVAVSYYHFYHMAKVHPEPGTWDSFLEKFMVGEVSYGSWYQHVQEWWELSRTHPVLYLFYEDMKENPKREIQKILEFVGRSLPEETVDFVVQHTSFKEMKKNPMTNYTTVPQEFMDHSISPFMRKGMAGDWKTTFTVAQNERFDADYAEKMAGCSLSFRSEL
notes: as for B2
In the case of B8, the kcat/Km [2] is reported as 13.7 M⁻¹ s⁻¹.
